Measurements taken from patent US20220143024A1, “METHODS OF USING IMIPRIDONES” (Board of Regents, The University of Texas System, priority 2019, published 2022).

How the values were obtained:
Experiment in all cases: BioID-MS
[1] = biological target: NDUFA2 (human) (UniProt O43678)
[2] = biological target: FMC1 (human) (UniProt Q96HJ9)
[3] = biological target: SFXN4 (human) (UniProt Q6P4A7)
[4] = biological target: LYRM4 (human) (UniProt Q9HD34)
[5] = biological target: ACAD9 (human) (UniProt Q9H845)
[6] = biological target: IDH3A (human) (UniProt P50213)
[7] = biological target: AIFM1 (human) (UniProt O95831)
AIFM1 (human), sequence (O95831 55-613 limits assumed): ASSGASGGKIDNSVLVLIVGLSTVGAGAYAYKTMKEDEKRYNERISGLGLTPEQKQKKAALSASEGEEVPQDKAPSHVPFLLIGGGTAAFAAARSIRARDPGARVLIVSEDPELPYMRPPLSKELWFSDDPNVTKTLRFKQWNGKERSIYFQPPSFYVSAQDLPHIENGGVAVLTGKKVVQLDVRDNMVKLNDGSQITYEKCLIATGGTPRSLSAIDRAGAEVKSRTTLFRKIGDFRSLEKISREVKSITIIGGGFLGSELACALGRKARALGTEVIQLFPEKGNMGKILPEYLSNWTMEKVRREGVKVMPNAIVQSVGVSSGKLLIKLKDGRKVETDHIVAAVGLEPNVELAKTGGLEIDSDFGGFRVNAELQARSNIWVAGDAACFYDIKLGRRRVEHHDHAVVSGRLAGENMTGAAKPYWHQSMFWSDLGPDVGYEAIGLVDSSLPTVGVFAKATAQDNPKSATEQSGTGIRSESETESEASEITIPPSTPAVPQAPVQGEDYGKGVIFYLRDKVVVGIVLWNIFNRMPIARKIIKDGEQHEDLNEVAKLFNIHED

[8] = biological target: NIPSNAP2 (human) (UniProt O75323)
[9] = biological target: GUF1 (human) (UniProt Q8N442)
[10] = biological target: PDIA3 (human) (UniProt P30101)
[11] = biological target: ACAD10 (human) (UniProt Q6JQN1)
ACAD10 (human), sequence (Q6JQN1 whole entry): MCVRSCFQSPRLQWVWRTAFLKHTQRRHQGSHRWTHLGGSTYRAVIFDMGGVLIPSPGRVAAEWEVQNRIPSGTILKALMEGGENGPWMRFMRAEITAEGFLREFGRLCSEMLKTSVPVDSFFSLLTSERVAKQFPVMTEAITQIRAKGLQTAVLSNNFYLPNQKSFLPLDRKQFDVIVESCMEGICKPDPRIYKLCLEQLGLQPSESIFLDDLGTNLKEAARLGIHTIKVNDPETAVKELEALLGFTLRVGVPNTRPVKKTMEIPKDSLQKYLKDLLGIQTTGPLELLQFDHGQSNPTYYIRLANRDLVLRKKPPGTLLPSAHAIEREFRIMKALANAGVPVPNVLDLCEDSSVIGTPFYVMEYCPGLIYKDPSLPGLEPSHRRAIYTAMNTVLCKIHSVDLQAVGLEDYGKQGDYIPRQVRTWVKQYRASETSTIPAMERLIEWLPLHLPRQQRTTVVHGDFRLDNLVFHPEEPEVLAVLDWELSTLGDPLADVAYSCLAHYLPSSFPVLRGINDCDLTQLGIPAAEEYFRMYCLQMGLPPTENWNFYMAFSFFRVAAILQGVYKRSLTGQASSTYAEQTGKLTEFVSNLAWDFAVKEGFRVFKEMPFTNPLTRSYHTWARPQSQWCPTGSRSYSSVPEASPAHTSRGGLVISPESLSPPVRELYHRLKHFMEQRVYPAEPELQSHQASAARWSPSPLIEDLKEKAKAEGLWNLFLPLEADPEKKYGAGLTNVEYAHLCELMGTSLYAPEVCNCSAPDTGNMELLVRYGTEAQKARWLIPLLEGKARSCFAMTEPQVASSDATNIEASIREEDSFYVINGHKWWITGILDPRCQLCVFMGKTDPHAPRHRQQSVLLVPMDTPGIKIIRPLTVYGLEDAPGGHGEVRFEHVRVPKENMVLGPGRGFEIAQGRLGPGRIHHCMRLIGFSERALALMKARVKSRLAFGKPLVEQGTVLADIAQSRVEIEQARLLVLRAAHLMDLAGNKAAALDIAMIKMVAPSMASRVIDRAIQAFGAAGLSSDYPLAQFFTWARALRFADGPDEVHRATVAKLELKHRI

[12] = biological target: COQ8A (human) (UniProt Q8NI60)
COQ8A (human), sequence (Q8NI60 163-647 limits assumed): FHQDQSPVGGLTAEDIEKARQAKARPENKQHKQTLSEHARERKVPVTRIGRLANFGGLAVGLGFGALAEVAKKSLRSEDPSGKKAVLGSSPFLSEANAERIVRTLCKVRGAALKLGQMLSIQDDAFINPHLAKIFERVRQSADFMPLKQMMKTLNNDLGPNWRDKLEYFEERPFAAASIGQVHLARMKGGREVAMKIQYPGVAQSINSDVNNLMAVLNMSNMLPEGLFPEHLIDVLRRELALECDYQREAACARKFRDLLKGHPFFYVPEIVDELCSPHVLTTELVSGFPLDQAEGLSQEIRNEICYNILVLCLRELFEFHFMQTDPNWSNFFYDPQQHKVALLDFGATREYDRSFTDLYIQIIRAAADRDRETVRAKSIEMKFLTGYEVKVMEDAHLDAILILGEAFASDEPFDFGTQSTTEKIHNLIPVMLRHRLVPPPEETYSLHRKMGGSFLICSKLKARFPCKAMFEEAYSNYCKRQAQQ

[13] = biological target: DCAKD (human) (UniProt Q8WVC6)
[14] = biological target: RTN4IP1 (human) (UniProt Q8WWV3)
[15] = biological target: MRPL55 (human) (UniProt Q7Z7F7)
[16] = biological target: NUBPL (human) (UniProt Q8TB37)
[17] = biological target: NDUFAF7 (human) (UniProt Q7L592)
[18] = biological target: NDUFS2 (human) (UniProt O75306)
[19] = biological target: SDHAF3 (human) (UniProt Q9NRP4)
[20] = biological target: MRPS24 (human) (UniProt Q96EL2)
[21] = biological target: MMAB (human) (UniProt Q96EY8)
[22] = biological target: ALDH2 (human) (UniProt P05091)
[23] = biological target: NDUFS6 (human) (UniProt O75380)
[24] = biological target: NDUFV2 (human) (UniProt P19404)
NDUFV2 (human), sequence (P19404 33-249 limits assumed): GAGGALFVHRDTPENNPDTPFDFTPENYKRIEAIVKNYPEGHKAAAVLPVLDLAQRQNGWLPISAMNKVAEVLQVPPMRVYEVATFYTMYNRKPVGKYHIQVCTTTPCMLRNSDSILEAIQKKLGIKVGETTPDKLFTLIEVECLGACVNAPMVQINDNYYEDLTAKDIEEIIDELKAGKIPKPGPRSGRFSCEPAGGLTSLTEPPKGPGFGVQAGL

[25] = biological target: C20orf7 (human) (UniProt Q5TEU4)
[26] = biological target: NDUFS4 (human) (UniProt O43181)
[27] = biological target: T1MM44 (human) (UniProt O43615)
[28] = biological target: SSBP1 (human) (UniProt Q04837)
[29] = biological target: MGME1 (human) (UniProt Q9BQP7)
[30] = biological target: ABHD10 (human) (UniProt Q9NUJ1)
ABHD10 (human), sequence (Q9NUJ1 53-306 limits assumed): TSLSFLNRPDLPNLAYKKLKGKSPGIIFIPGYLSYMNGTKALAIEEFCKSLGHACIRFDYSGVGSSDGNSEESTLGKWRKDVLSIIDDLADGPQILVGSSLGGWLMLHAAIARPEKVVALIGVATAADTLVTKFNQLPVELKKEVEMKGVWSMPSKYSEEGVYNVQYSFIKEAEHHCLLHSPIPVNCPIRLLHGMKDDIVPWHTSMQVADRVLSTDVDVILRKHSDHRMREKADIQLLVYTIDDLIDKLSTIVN

[31] = biological target: MTRF1L (human) (UniProt Q9UGC7)
MTRF1L (human), sequence (Q9UGC7 27-380 limits assumed): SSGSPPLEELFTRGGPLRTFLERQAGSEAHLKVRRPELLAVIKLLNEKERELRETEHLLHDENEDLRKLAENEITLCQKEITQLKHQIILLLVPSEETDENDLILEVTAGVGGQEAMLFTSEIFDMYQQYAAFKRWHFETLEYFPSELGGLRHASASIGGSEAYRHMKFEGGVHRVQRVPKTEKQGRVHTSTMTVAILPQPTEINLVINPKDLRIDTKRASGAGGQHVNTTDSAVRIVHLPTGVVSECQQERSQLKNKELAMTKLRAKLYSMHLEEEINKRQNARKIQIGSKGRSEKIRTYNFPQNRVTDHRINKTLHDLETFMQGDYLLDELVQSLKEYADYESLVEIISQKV

[32] = biological target: CLIC4 (human) (UniProt Q9Y696)
[33] = biological target: TST (human) (UniProt Q16762)
[34] = biological target: ATPAF2 (human) (UniProt Q8N5M1)
[35] = biological target: ACN9 (human) (UniProt Q9NRP4)
[36] = biological target: MTHFD2 (human) (UniProt P13995)
[37] = biological target: TAC01 (human) (UniProt Q9BSH4)
[38] = biological target: ABAT (human) (UniProt P80404)
ABAT (human), sequence (P80404 29-500 limits assumed): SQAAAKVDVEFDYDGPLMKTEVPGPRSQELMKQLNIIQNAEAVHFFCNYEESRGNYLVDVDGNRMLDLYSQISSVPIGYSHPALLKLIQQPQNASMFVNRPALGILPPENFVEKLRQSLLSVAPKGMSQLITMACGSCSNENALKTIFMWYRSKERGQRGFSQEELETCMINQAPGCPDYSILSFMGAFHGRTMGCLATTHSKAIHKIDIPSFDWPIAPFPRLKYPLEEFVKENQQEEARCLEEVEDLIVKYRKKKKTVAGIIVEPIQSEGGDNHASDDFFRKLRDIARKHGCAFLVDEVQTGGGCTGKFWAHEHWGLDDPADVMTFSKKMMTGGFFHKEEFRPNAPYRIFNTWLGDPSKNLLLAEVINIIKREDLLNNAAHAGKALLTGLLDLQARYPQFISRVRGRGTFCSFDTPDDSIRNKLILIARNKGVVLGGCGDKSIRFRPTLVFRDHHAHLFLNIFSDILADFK

[39] = biological target: MRPL21 (human) (UniProt Q7Z2W9)
[40] = biological target: HARS2 (human) (UniProt P49590)
[41] = biological target: MRPL10 (human) (UniProt Q7Z7H8)
[42] = biological target: MRPL46 (human) (UniProt Q9H2W6)
[43] = biological target: EFHA1 (human) (UniProt Q8IYU8)
[44] = biological target: ECSIT (human) (UniProt Q9BQ95)
[45] = biological target: ACO2 (human) (UniProt Q99798)
ACO2 (human), sequence (Q99798 28-780 limits assumed): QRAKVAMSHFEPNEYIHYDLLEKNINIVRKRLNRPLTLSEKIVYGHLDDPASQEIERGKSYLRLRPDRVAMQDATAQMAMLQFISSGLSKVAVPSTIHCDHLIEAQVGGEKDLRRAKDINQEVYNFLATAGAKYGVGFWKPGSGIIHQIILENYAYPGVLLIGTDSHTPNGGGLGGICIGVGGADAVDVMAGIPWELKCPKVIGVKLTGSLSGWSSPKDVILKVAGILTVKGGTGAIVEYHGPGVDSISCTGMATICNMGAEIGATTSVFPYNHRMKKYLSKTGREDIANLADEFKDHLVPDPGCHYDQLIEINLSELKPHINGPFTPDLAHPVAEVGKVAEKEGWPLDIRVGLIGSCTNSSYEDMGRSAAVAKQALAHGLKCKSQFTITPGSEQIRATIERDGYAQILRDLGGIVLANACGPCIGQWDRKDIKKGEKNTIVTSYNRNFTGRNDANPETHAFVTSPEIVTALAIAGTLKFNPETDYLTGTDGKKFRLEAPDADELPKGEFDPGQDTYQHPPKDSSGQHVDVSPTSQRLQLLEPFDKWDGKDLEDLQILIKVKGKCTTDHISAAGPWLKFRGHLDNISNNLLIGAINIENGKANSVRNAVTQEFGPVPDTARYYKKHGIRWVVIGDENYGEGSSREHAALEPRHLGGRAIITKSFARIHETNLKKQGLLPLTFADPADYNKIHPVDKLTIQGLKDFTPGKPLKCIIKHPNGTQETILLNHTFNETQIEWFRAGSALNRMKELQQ

[46] = biological target: HSD17B10 (human) (UniProt Q99714)
[47] = biological target: MRPS6 (human) (UniProt P82932)
[48] = biological target: GLUD1 (human) (UniProt P00367)
[49] = biological target: PET112 (human) (UniProt O75879)
PET112 (human), sequence (O75879 31-557 limits assumed): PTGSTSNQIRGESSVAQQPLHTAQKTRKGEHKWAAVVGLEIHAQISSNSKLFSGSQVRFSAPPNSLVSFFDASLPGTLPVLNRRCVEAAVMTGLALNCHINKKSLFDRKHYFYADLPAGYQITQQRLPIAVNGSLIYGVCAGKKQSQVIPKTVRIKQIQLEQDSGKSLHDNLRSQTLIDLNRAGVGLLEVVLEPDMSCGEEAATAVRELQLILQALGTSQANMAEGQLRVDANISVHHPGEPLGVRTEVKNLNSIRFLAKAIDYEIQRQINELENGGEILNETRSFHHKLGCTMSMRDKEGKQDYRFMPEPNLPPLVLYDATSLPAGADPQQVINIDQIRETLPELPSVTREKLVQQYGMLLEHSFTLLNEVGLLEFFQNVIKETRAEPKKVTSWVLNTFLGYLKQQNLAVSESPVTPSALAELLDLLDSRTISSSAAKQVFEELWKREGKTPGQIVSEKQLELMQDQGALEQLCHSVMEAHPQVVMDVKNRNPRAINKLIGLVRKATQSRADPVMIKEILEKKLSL

[50] = biological target: OXA1L (human) (UniProt Q15070)
[51] = biological target: CHCHD3 (human) (UniProt Q9NX63)
[52] = biological target: TFAM (human) (UniProt Q00059)
[53] = biological target: SUCLG2 (human) (UniProt Q96I99)
[54] = biological target: ACSS1 (human) (UniProt Q9NUB1)
[55] = biological target: ABCB7 (human) (UniProt O75027)
[56] = biological target: PRKCA (human) (UniProt P17252)
[57] = biological target: ADCK3 (human) (UniProt Q8NI60)
ADCK3 (human), sequence (Q8NI60 163-647 limits assumed): as the sequence (Q8NI60 163-647 limits assumed) above

[58] = biological target: IARS2 (human) (UniProt Q9NSE4)

LYRM4 (human), sequence (Q9HD34 whole entry): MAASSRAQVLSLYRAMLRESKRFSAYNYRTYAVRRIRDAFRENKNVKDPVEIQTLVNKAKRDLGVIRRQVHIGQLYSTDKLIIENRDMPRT
FMC1 (human), sequence (Q96HJ9 whole entry): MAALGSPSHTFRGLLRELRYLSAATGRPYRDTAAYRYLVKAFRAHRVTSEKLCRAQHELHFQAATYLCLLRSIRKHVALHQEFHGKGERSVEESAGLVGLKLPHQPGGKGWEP

Log2 Fold change (vs control) [1]: -0.23 log2
Log2 Fold change (vs control) [2]: 0.41 log2
Log2 Fold change (vs control) [3]: -0.38 log2
Log2 Fold change (vs control) [4]: 0.52 log2
Log2 Fold change (vs control) [5]: 1.18 log2
Log2 Fold change (vs control) [6]: -0.06 log2
Log2 Fold change (vs control) [7]: -2.32 log2
Log2 Fold change (vs control) [8]: 0.61 log2
Log2 Fold change (vs control) [9]: 0.38 log2
Log2 Fold change (vs control) [10]: -0.41 log2
Log2 Fold change (vs control) [11]: -4.09 log2
Log2 Fold change (vs control) [12]: -0.67 log2
Log2 Fold change (vs control) [13]: -3.75 log2
Log2 Fold change (vs control) [14]: -0.52 log2
Log2 Fold change (vs control) [15]: -0.2 log2
Log2 Fold change (vs control) [16]: -2.58 log2
Log2 Fold change (vs control) [17]: 0.04 log2
Log2 Fold change (vs control) [18]: 0.1 log2
Log2 Fold change (vs control) [19]: -0.03 log2
Log2 Fold change (vs control) [20]: 1.12 log2
Log2 Fold change (vs control) [21]: 0.11 log2
Log2 Fold change (vs control) [22]: -0.18 log2
Log2 Fold change (vs control) [23]: -0.26 log2
Log2 Fold change (vs control) [24]: -0.47 log2
Log2 Fold change (vs control) [25]: -0.06 log2
Log2 Fold change (vs control) [26]: -0.57 log2
Log2 Fold change (vs control) [27]: -0.12 log2
Log2 Fold change (vs control) [28]: 0.89 log2
Log2 Fold change (vs control) [29]: 0.44 log2
Log2 Fold change (vs control) [30]: -0.16 log2
Log2 Fold change (vs control) [31]: 0.51 log2
Log2 Fold change (vs control) [32]: -2.81 log2
Log2 Fold change (vs control) [33]: -0.51 log2
Log2 Fold change (vs control) [34]: -0.91 log2
Log2 Fold change (vs control) [35]: -2.14 log2
Log2 Fold change (vs control) [36]: 0.22 log2
Log2 Fold change (vs control) [37]: 0.07 log2
Log2 Fold change (vs control) [38]: -3.58 log2
Log2 Fold change (vs control) [39]: -0.72 log2
Log2 Fold change (vs control) [40]: -0.49 log2
Log2 Fold change (vs control) [41]: -0.21 log2
Log2 Fold change (vs control) [42]: -0.28 log2
Log2 Fold change (vs control) [43]: -4.17 log2
Log2 Fold change (vs control) [44]: -1.04 log2
Log2 Fold change (vs control) [45]: -0.29 log2
Log2 Fold change (vs control) [46]: 0.72 log2
Log2 Fold change (vs control) [47]: -0.62 log2
Log2 Fold change (vs control) [48]: -0.39 log2
Log2 Fold change (vs control) [49]: -0.3 log2
Log2 Fold change (vs control) [50]: -1 log2
Log2 Fold change (vs control) [51]: -2.46 log2
Log2 Fold change (vs control) [52]: 0.63 log2
Log2 Fold change (vs control) [53]: -0.49 log2
Log2 Fold change (vs control) [54]: -1.46 log2
Log2 Fold change (vs control) [55]: -0.65 log2
Log2 Fold change (vs control) [56]: -3.58 log2
Log2 Fold change (vs control) [57]: -0.3 log2
Log2 Fold change (vs control) [58]: 0.43 log2
Substance: FlagBirA-ClpP (Y118A) (from UniProt P06709 1-321; Q16740 57-277) (enzyme)
